Measurements as given in the supplement of paper PMC9170038.

Test system: MS2 coat protein
Test: apparent KD of MS2 coat protein; higher = weaker reporter binding
Settings: Eterna round: R107
Summary of the method: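 Illumina sequencing clusters served as templates for on-chip transcription of the designed RNA switches. SNAP-549-labelled MS2 coat protein was then titrated in twofold steps from 0.7 or 1.5 nM to 3 µM, allowing 0.8–1.5 h per step at first and 10–20 min per step later. The buffer held 100 mM Tris-HCl pH 7.5, 80 mM KCl and 4 mM MgCl2, without or with constant ligand. Apparent KD is the median per design of normalised cluster binding-curve fits.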

[1] = input ligand: theophylline 20 uM
[2] = input ligand: theophylline 2 mM
[3] = input ligand: tryptophan 2.4 mM

Sequence | apparent KD of MS2 coat protein (input ligand: arginine 13.2 mM) | apparent KD of MS2 coat protein (input ligand: none) | apparent KD of MS2 coat protein [1] | apparent KD of MS2 coat protein [2] | apparent KD of MS2 coat protein [3]
GCUGCCAUACGAAGGAGCGCUGUUGCAAUGAGGCGAACAUGAGGAUCACCCAUGUGGCAAAAGCAGGUAGGUCGCGUAUGGCAGC [EAB #17] | 20.4 nM | 20.5 nM | 29.3 nM | 23.4 nM | 20.2 nM
ACAUGAGGAUCACCCAUGUUUGUUGUUCCUCGAGGACCGGUACGGCCGCCACUCGAACGAGUGGCGCGCGAGUGCGCACUCGCGC [aOa] | 12.7 nM | 11.9 nM | 18 nM | 13.4 nM | 11.7 nM
UGUUUGGUGCGCGAGUGUUGGAUAAUUGAUACCAGUGUAGAUGUGCGCCCUUGGCAGCGAAUCCUAACAUGAGGAUCACCCAUGU [5.Y] | 38.2 nM |  | 59.5 nM |  | 41.8 nM
AGUUCCAGGUCGGCCGCCACUGGCGUGGCCGGUCCUCGGACUUACAUGAGGAUCACCCAUGUGAACAGGACCGGGACCGCAUGGG [Exclusion Tryptophan B GF 25] | 30 nM |  | 46 nM | 48.4 nM | 
GCUGCUUUGGGAAGGAGCGCUGCGGUAUUGUGGCGGACAUGAGGAUCACCCAUGUGCCUGCAGCAGGUAGGUCGCUUAGGGCAGC [EAP NP+V+V2 #17] | 54 nM | 68.8 nM | 92 nM | 79.8 nM | 58.4 nM
UGUAUGUGAUCUGAUACCAGCGAUGAUAACCUGAGGAUCACCCUGGUAUGGCGAAAGCCUCGCCCUUGGCAGCAGAUCGCAUACU | 184 nM | 747 nM | 402 nM | 30.7 nM | 1210 nM
ACAUGAGGAUCACCCAUGUCACGGCACGAUACCAGCUGAUGCGGUGGCCCUUGGCAGCGUGACGUUUGGUCCCGCGGAUGACACG [qsmullin] | 86.4 nM |  | 280 nM |  | 240 nM
GUCGUGGUCGGAAGGAGCGACAUGAGGAUCACCCAUGUCUCCCGUUAUGGGAGUUCCUUAGGUCAGGUAGGUCGCCGACUGCGGC [#1 Exclusion - Arginine B Attempt #23 (Inspired by Omei)] | 54.7 nM | 199 nM | 170 nM | 276 nM | 181 nM
CCUUAAUAUAGAAGGAGCGCGCUAACAUGAGGAUCACCCAUGUAAAGGGUUUUGGGCUUAGCGCAGGUAGGUCGCUAUAAGAACC [Arg B Ex t2] | 60.1 nM | 106 nM | 95 nM | 127 nM | 93.9 nM
CCCAACAGUGAUGCCGGUGUUGGUGGUGAUACCAGCGUCUUAUGGCGCCCUUGGCAGCACCAACAUGAGGAUCACCCAUGUGAAA [Beenerveor] | 19.8 nM |  | 113 nM |  | 36.9 nM
CACGGCCAUGAGGAUCACCCAUGGAAUAAUCGAGGACCGGUACGGCCGCCACUCGUGGACCGUGACCUGUACGAAAAGUGCAGGA | 20.8 nM | 26.5 nM | 31.7 nM | 26.9 nM | 10 nM
AUAAAAGGGUUAUAUAGAUUUAGGUCCAGUCGAGGACCGGUACGGCCGCCACUCGUACUGAAAUACAUGAGGAUCACCCAUGUUA [JR_SSTryptoA_Sub006] | 16.4 nM |  | 25.8 nM | 22.9 nM | 
GCACGGGCGAUCGGCACUUUUACUAAUAUACGAGGACCGGUACGGCCGCCACUCGAGCUAAGACAUGAGGAUCACCCAUGUAACG [theeternabot_exclusion_MS2_Trp_A_41] | 22 nM |  | 30 nM | 30.4 nM | 
AGACGAGCAAUCAACGGGCGUUUCGUGACGCGAGGACCGGUACGGCCGCCACUCGAGUCUGGACAUGAGGAUCACCCAUGUUAUG [theeternabot_exclusion_MS2_Trp_A_46] | 32.8 nM | 22 nM | 23 nM | 41 nM | 22.2 nM
UGACAUUGCUCAGAUACCAGACAUGAGCAUCAGCCAUGUACCGAGAGUACAUGUUAAAGUGUCCCUUGGCAGCUGAGCAAUGUCU [Mod of Eli's TheoBX5 #AlternateMS2 v4] | 116 nM | 328 nM | 640 nM | 371 nM | 404 nM
GGCCAUGGAAACAUGGCGGCGGCGUAUGCGCGAGGACCGGUACGGCCGCCACUCGGGCGACAUGAGGAUCACCCAUGUUCCUCAU [ETA NP+V+V2 #25] | 127 nM |  | 243 nM | 275 nM | 

Sequence | apparent KD of MS2 coat protein (input ligand: arginine 13.2 mM) | apparent KD of MS2 coat protein (input ligand: none) | apparent KD of MS2 coat protein [1] | apparent KD of MS2 coat protein [2] | apparent KD of MS2 coat protein [3]
AACGUAUACAGAAGGAGCGUGAUUUAUAUUACUCAUUCAUAUACAUGAGGAUCACCCAUGUCACAGGUAGGUCGCUGUAUUCGUA [JR_ExcArginiB_Sub021] | 76 nM | 153 nM | 165 nM | 157 nM | 108 nM
UACAUGAGGAUCACCCAUGUAUUGCCGGUACGAGGACCGGUACGGCCGCCACUCGGGACAUGAGGAUCACCCAUGUGCUGCUAUU [Same State Trypophan A GF 23] | 28.7 nM | 44.4 nM | 49.8 nM | 42.4 nM | 45.8 nM
GGGAGAUGAAAAGAUUGAGCUAAAACAGAAGGAGCGUGAAUUAACACAGGUAGGUCGCUGACAACAUGAGGAUCACCCAUGUAUU [Same State Arginine A GF4] | 24.9 nM | 19.6 nM | 30.4 nM | 26.5 nM | 21.4 nM
UAUAUAUAGGCGGCCGCCACUGAUUUUCAUAUAUAUAUAACAUGAGGAUCACCCAUGUAGAUAUACAGGACCGGGCCUAUAUAUA [aaaA] | 17 nM | 16.1 nM | 16.5 nM | 14.7 nM | 13.3 nM
CAGAGCUACCGGGAUACCAGAAAUGGUAUUCCUUAAUUUCUUACAUGAGGAUCACCCAUGUUCCCUUGGCAGCUUGGUAGCUCUG [ETHB #8] | 48.6 nM |  | 107 nM |  | 83.7 nM
AAGGGACAUGAGGAUCACCCAUGUACCGAAGGAGCGGCAGAGAUGCCAGGUAGGUCGCGGUACUUGCCGGGUCAUUCAUGCAAAA [Teanbe] | 16.4 nM | 18.8 nM | 23.5 nM | 21.9 nM | 21.8 nM
CGUAUUGGAAACAGUACGAGUGAUCCGGUCCGAGGACCGGUACGGCCGCCACUCGAUAUAAAUAAACAUGAGGAUCACCCAUGUA [Ex Tryptophan A 12] | 17.1 nM |  | 16.9 nM | 20.3 nM | 
AGAACAAAACUAAAUAAACAACUGGGUGAUACCAGCACAUGUGCGUGCCCUUGGCAGCAUCCGGCCACAUGAGGAUCACCCAUGU [Inarar] | 42.6 nM |  | 95.6 nM |  | 62.7 nM
AUGGACGACGAUCUGGGAAAACCAGAUCGACGAGGACCGGUACGGCCGCCACUCGUGUUUAUUUAACAUGAGGAUCACCCAUGUA [#13 Tryptophan A Same State] | 34 nM |  | 55.7 nM | 65.5 nM | 
ACAUGAGGAUCACCCAUGUAAGAUGCAGAAGGAGCGGGAAAUAACCCAGGUAGGUCGCUGCGGUUUGGAUUAUUGUGUUCGUGAA [#08 Exclusion - Arginine A] | 11.6 nM | 12.1 nM | 18.8 nM | 13.8 nM | 12.5 nM
GGCGCGAGCCAACAUGAGGAUCACCCAUGUCGAGGACCGGUACGGCCGCCACUCGAACGAGUGAAGCGCGCGCGCGCGCGCGCGC [Uaa] | 32.4 nM | 61.5 nM | 106 nM | 68.8 nM | 167 nM
UCAUGCAGGUCGGCCGCCACUACACACAUGAGGAUCACCCAUGUAGUUACUGGGUGAAGUGGCAGUAGGACCGGGACCUGCACAC [Brourdmod17] | 155 nM | 504 nM | 632 nM | 849 nM | 1090 nM
GAAGAUCCGUAAGAUACCAGUGCAGAUCGGCACAUGAGGAUCACCCAUGUAAAGCAAGAACACCCUUGGCAGCUUUCGUAACAAC [theeternabot_sameState_MS2_Theo_B_15] | 66.9 nM |  | 64.8 nM |  | 109 nM
GUAUACAUGAGGAUCACCCAUGUACCAGAAGGAGCGCUGGAAACAGCAGGUAGGUCGCUGGUAGGUCCUCUAUCUAGACGUUCUU [EAA NP+V+V2 #6] | 40.5 nM | 193 nM | 167 nM | 157 nM | 110 nM
UGAUACCAGUCGGCCGCCACUAUGCUAGAUACUAGCAAUAAAGGGCGACAUGAGGAUCACCCAUGUAGGACCGGGACUGGUAUCU |  |  | 14.1 nM | 12 nM | 
